In PMC4349606, “Solution structure and biophysical characterization of the multifaceted signalling effector protein growth arrest specific-1” (BMC Biochemistry, 2015) one finds Kd data, which are given here for 2 molecules.

For one test, the target named is RET (Homo sapiens) (UniProt P07949). Conditions: cited from earlier work.
Test [1] addresses T1, ectodomain of RET protein (ecRET; R&D Systems, catalog no. 1168-CR-050/CF) (UniProt P07949 29-635).
T1 construct: Rearranged during transformation (RET) receptor tyrosine kinase, ectodomain; also called RET receptor; extracellular part of RET; source: bought: R&D Systems (catalog no. 1168-CR-050/CF)
As to the kind of experiment: SPR; Biacore; ecRET amine-coupled to a CM5 chip at 4000 RU; GAS1 series 2-32 uM injected at 20 ul/min for 2 min; 10 mM Hepes pH 7.4, 150 mM NaCl, 1 mM CaCl2, 0.01% Triton X-100; Kd from equilibrium responses (Req), two independent experiments. Particulars: both partners purified.

T1 sequence (P07949 29-635): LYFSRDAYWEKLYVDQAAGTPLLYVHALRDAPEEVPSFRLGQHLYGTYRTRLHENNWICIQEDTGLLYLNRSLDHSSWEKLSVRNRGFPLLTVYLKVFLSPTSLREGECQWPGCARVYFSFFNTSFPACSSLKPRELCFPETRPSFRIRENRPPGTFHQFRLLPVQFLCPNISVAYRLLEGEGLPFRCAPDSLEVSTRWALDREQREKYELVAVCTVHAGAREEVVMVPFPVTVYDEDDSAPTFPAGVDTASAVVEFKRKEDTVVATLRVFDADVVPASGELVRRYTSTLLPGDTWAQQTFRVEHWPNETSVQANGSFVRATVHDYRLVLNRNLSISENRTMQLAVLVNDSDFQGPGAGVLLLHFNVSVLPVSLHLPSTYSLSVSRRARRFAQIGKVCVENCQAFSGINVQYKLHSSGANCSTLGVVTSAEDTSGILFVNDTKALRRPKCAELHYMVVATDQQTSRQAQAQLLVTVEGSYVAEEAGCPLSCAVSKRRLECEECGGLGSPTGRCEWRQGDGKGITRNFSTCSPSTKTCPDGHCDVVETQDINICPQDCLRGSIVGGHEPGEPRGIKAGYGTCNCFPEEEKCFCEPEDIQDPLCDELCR
Sequence of RET (Homo sapiens) (P07949 29-635): as above

On to GFRα1-GDNF (from UniProt P56159), for which the Kd with RET (Homo sapiens) was 0.0002 µM.

B1: human growth arrest specific-1 (GAS1), soluble form without the GPI-anchor, amino acids 39-317 (domain or fragment, UniProt P54826 39-317, looked up)
chain: GLAHGRRLICWQALLQCQGEPECSYAYNQYAEACAPVLAQHGGGDAPGAAAAAFPASAASFSSRWRCPSHCISALIQLNHTRRGPALEDCDCAQDENCKSTKRAIEPCLPRTSGGGAGGPGAGGVMGCTEARRRCDRDSRCNLALSRYLTYCGKVFNGLRCTDECRTVIEDMLAMPKAALLNDCVCDGLERPICESVKENMARLCFGAELGNGPGSSGSDGGLDDYYDEDYDDEQRTGGAGGEQPLDDDDGVPHPPRPGSGAAASGGRGDLPYGPGRRS
modifications: glycosylated: approximately one N-glycan added in the insect cells (N-glycosylation site predicted at Asn117)
notes: secreted with the honey bee mellitin signal of the vector pK509.3; after thrombin cleavage Gly-Ser of the site probably remains at the N-terminus (surmise); Theoretical mass without glycan printed as 29.0 kDa; also called recombinant human GAS1; not shown: FLAG, N-terminal, cleaved; His6, N-terminal, cleaved
With B1, the Kd in test [1] came to 12.2 µM.
